± gives the uncertainty stated by the source.

This note sets out measurements from the Human Domainome abundance scans (Beltran et al. 2025).

B1: Steroid hormone receptor ERR2, residues 100 to 176; numbered along this chain, O95718 (parent)
chain: KRLCLVCGDIASGYHYGVASCEACKAFFKRTIQGNIEYSCPATNECEITKRRRKSCQACRFMKCLKVGMLKEGVRLD

This series covers variants of B1. The series is described as follows: abundance fitness (aPCA) (normalised: wild type 0, dead -1); higher = more abundant; growth selection in yeast, the domain comes from the species named. Conditions: Homo sapiens.
Regarding KRLCLVCGDIASGYHYGVASCEACKAFFKRTIQGNIEYSCPATNECEITKRRRKSCQACRFIKCLKVGMLKEGVRLD [M62I], the abundance fitness was -0.148 ± 0.087.

As for KRLCLVCGDIASGYHYGVASCEACKAFFKRTIQGNIEYSCPATNECEITKRRRKSCQACRFSKCLKVGMLKEGVRLD [M62S], the abundance fitness is 0.148 ± 0.045.

For KRLCLVCGDIASGYHYGVASCEACKAFFKRTIQGNIEYSCPATNECEITKRRRKSCQACRFAKCLKVGMLKEGVRLD [M62A], the abundance fitness amounted to 0.013 ± 0.044.

On to KRLCLVCGDIASGYHYGVASCEACKAFFKRTIQGNIEYSCPATNECEITKRRRKSCQACRFWKCLKVGMLKEGVRLD [M62W], for which the abundance fitness was -0.136 ± 0.051.

Turning to KRLCLVCGDIASGYHYGVASCEACKAFFKRTIQGNIEYSCPATNECEITKRRRKSCQACRFKKCLKVGMLKEGVRLD [M62K], the abundance fitness is 0.141 ± 0.052.

KRLCLVCGDIASGYHYGVASCEACKAFFKRTIQGNIEYSCPATNECEITKRRRKSCQACRFQKCLKVGMLKEGVRLD [M62Q]: the abundance fitness was determined as 0.04 ± 0.057.

For the variant KRLCLVCGDIASGYHYGVASCEACKAFFKRTIQGNIEYSCPATNECEITKRRRKSCQACRFCKCLKVGMLKEGVRLD [M62C], the abundance fitness was -1.07 ± 0.3.

Take KRLCLVCGDIASGYHYGVASCEACKAFFKRTIQGNIEYSCPATNECEITKRRRKSCQACRFHKCLKVGMLKEGVRLD [M62H]: the abundance fitness is -0.496 ± 0.16.

On to KRLCLVCGDIASGYHYGVASCEACKAFFKRTIQGNIEYSCPATNECEITKRRRKSCQACRFEKCLKVGMLKEGVRLD [M62E], for which the abundance fitness is 0.086 ± 0.05.

Consider KRLCLVCGDIASGYHYGVASCEACKAFFKRTIQGNIEYSCPATNECEITKRRRKSCQACRFDKCLKVGMLKEGVRLD [M62D], for which the abundance fitness is -0.057 ± 0.064.

On to KRLCLVCGDIASGYHYGVASCEACKAFFKRTIQGNIEYSCPATNECEITKRRRKSCQACRFVKCLKVGMLKEGVRLD [M62V], for which the abundance fitness was -0.006 ± 0.046.

For the variant KRLCLVCGDIASGYHYGVASCEACKAFFKRTIQGNIEYSCPATNECEITKRRRKSCQACRFRKCLKVGMLKEGVRLD [M62R], the abundance fitness is -0.026 ± 0.036.

With KRLCLVCGDIASGYHYGVASCEACKAFFKRTIQGNIEYSCPATNECEITKRRRKSCQACRFTKCLKVGMLKEGVRLD [M62T], the abundance fitness worked out at 0.106 ± 0.059.

Take KRLCLVCGDIASGYHYGVASCEACKAFFKRTIQGNIEYSCPATNECEITKRRRKSCQACRFLKCLKVGMLKEGVRLD [M62L]: the abundance fitness was -0.135 ± 0.048.

KRLCLVCGDIASGYHYGVASCEACKAFFKRTIQGNIEYSCPATNECEITKRRRKSCQACRFGKCLKVGMLKEGVRLD [M62G]: the abundance fitness was -0.059 ± 0.039.

Turning to KRLCLVCGDIASGYHYGVASCEACKAFFKRTIQGNIEYSCPATNECEITKRRRKSCQACRFPKCLKVGMLKEGVRLD [M62P], the abundance fitness was -1.05 ± 0.21.

KRLCLVCGDIASGYHYGVASCEACKAFFKRTIQGNIEYSCPATNECEITKRRRKSCQACRFMDCLKVGMLKEGVRLD [K63D]: the abundance fitness is -0.783 ± 0.17.

Turning to KRLCLVCGDIASGYHYGVASCEACKAFFKRTIQGNIEYSCPATNECEITKRRRKSCQACRFMTCLKVGMLKEGVRLD [K63T], the abundance fitness was -0.226 ± 0.068.

Take KRLCLVCGDIASGYHYGVASCEACKAFFKRTIQGNIEYSCPATNECEITKRRRKSCQACRFMRCLKVGMLKEGVRLD [K63R]: the abundance fitness is -0.145 ± 0.041.

With KRLCLVCGDIASGYHYGVASCEACKAFFKRTIQGNIEYSCPATNECEITKRRRKSCQACRFMICLKVGMLKEGVRLD [K63I], the abundance fitness was -0.461 ± 0.19.

Turning to KRLCLVCGDIASGYHYGVASCEACKAFFKRTIQGNIEYSCPATNECEITKRRRKSCQACRFMFCLKVGMLKEGVRLD [K63F], the abundance fitness is -0.931 ± 0.23.

In the case of KRLCLVCGDIASGYHYGVASCEACKAFFKRTIQGNIEYSCPATNECEITKRRRKSCQACRFMSCLKVGMLKEGVRLD [K63S], the abundance fitness was -0.611 ± 0.069.

For the variant KRLCLVCGDIASGYHYGVASCEACKAFFKRTIQGNIEYSCPATNECEITKRRRKSCQACRFMWCLKVGMLKEGVRLD [K63W], the abundance fitness was -0.58 ± 0.079.

In the case of KRLCLVCGDIASGYHYGVASCEACKAFFKRTIQGNIEYSCPATNECEITKRRRKSCQACRFMPCLKVGMLKEGVRLD [K63P], the abundance fitness is -0.914 ± 0.16.

As to KRLCLVCGDIASGYHYGVASCEACKAFFKRTIQGNIEYSCPATNECEITKRRRKSCQACRFMVCLKVGMLKEGVRLD [K63V], the abundance fitness was -0.522 ± 0.058.

As for KRLCLVCGDIASGYHYGVASCEACKAFFKRTIQGNIEYSCPATNECEITKRRRKSCQACRFMHCLKVGMLKEGVRLD [K63H], the abundance fitness is -0.359 ± 0.12.

In the case of KRLCLVCGDIASGYHYGVASCEACKAFFKRTIQGNIEYSCPATNECEITKRRRKSCQACRFMMCLKVGMLKEGVRLD [K63M], the abundance fitness is -0.11 ± 0.06.

Regarding KRLCLVCGDIASGYHYGVASCEACKAFFKRTIQGNIEYSCPATNECEITKRRRKSCQACRFMLCLKVGMLKEGVRLD [K63L], the abundance fitness is -0.55 ± 0.062.

On to KRLCLVCGDIASGYHYGVASCEACKAFFKRTIQGNIEYSCPATNECEITKRRRKSCQACRFMGCLKVGMLKEGVRLD [K63G], for which the abundance fitness was -0.534 ± 0.058.

In the case of KRLCLVCGDIASGYHYGVASCEACKAFFKRTIQGNIEYSCPATNECEITKRRRKSCQACRFMQCLKVGMLKEGVRLD [K63Q], the abundance fitness is -0.21 ± 0.064.

On to KRLCLVCGDIASGYHYGVASCEACKAFFKRTIQGNIEYSCPATNECEITKRRRKSCQACRFMNCLKVGMLKEGVRLD [K63N], for which the abundance fitness is -0.605 ± 0.15.

Take KRLCLVCGDIASGYHYGVASCEACKAFFKRTIQGNIEYSCPATNECEITKRRRKSCQACRFMACLKVGMLKEGVRLD [K63A]: the abundance fitness was -0.233 ± 0.052.

As for KRLCLVCGDIASGYHYGVASCEACKAFFKRTIQGNIEYSCPATNECEITKRRRKSCQACRFMECLKVGMLKEGVRLD [K63E], the abundance fitness is -0.596 ± 0.082.

With KRLCLVCGDIASGYHYGVASCEACKAFFKRTIQGNIEYSCPATNECEITKRRRKSCQACRFMCCLKVGMLKEGVRLD [K63C], the abundance fitness is -0.242 ± 0.077.

As to KRLCLVCGDIASGYHYGVASCEACKAFFKRTIQGNIEYSCPATNECEITKRRRKSCQACIFMKCLKVGMLKEGVRLD [R60I], the abundance fitness is -0.23 ± 0.11.
